{"source": "the supplement of paper PMC9170038"}
{"test_system": "MS2 coat protein", "test": "apparent KD of MS2 coat protein; higher = weaker reporter binding", "conditions": "Eterna round: R107; input ligand: theophylline 2 mM", "in_short": "(§1)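 Titration buffer: 100 mM Tris-HCl pH 7.5, 80 mM KCl, 4 mM MgCl2, without or with constant ligand. Designed RNA switches transcribed on-chip from Illumina sequencing clusters received SNAP-549-labelled MS2 coat protein in twofold steps from 0.7 or 1.5 nM to 3 µM. Apparent KD is the median per design of fits to normalised cluster binding curves.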", "units": {"apparent KD of MS2 coat protein": "nM"}}
{"sequence": "UUAUAAGUACCGGUCCUCAGAUCCUCAUGACGAGGACCGGUACGGCCGCCACUCGAAACAUGAGGAUCACCCAUGUAAUAACACU [Brourdmod20]", "apparent KD of MS2 coat protein": 24.6}
{"sequence": "GAGGGUGAGCCUCUGGUCCGUUUGACGGAUACCAGCGAGAGGUCUCGCCCUUGGCAGCCGACGACAUGAGGAUCACCCAUGUUAA [#09 Exclusion-TheophyllineA]", "apparent KD of MS2 coat protein": 19.2}
{"sequence": "GUUUAAAGGUCGGCCGCCACUGUAGGAUGUGUUCUUUCACAUGAGGAUCACCCAUGUUGUUAUUAUAGGACCGGGAUUGUAGGAC [39MS split4]", "apparent KD of MS2 coat protein": 35.5}
{"sequence": "AACAUGAGGAUCACCCAUGUCUGAACUGAAGGAGCGCUAAAUAAGGCAGGUAGGUCGCGGAAUUUUGUAUAUAUAUAUAUAUGGG [9.F]", "apparent KD of MS2 coat protein": 25}
{"sequence": "GGUUACUCUACGGCCGCCACUGUAAUGUAAAGAUUCCUGUACAUGACAUGAGGAUCACCCAUGUGCAGGACCGGGUAGUGUAACC [Tryptophan B 20]", "apparent KD of MS2 coat protein": 225}
{"sequence": "UUUUUCAUAGGUUAUAGUUAAGAAACUGAAGGAGCGUGGUAAUACACAGGUAGGUCGCAGAUUUUACAUGAGGAUCACCCAUGUU [JR_SSArginiA_Sub009]", "apparent KD of MS2 coat protein": 21.5}
{"sequence": "CUGUACAUCUCGGCCGCCACUGACAUGAGGAUCACCCAUGUAGUACCUGAGAUAGACAUAUCUUACAGGACCGGGAGGUGUGCAG [SSTryp B #31]", "apparent KD of MS2 coat protein": 9.35}
{"sequence": "UCCCUACCGUCGGCCGCCACUGGGUCAUACAGUUCGUAACUACAUGAGGAUCACCCAUGUGCAGCCAGGACCGGGACGCGCCUUG [theeternabot_sameState_MS2_Trp_B_16]", "apparent KD of MS2 coat protein": 148}
{"sequence": "GACAUGAGGAUCACCCAUGUACCGCGAGAAGGAGCGCGGAUAAACGCAGGUAGGUCGCUCGUGGGCUUACAUUCAAGUGUAAGCU [Usarat]", "apparent KD of MS2 coat protein": 118}
{"test_system": "MS2 coat protein", "test": "apparent KD of MS2 coat protein; higher = weaker reporter binding", "conditions": "Eterna round: R107; input ligand: tryptophan 2.4 mM", "in_short": "as §1", "units": {"apparent KD of MS2 coat protein": "nM"}}
{"sequence": "AUCUACGUGGGUGAUACCAGCUGGUUAGUACACAUGAGGAUCACCCAUGUGCAGGCAGGCAGCCCUUGGCAGCACCGCAGUGGCU [theeternabot_sameState_MS2_Theo_B_36]", "apparent KD of MS2 coat protein": 60.9}
{"sequence": "CUCAUCCACGCGGCCGCCACUACUUGUAGGUGUGGGUGUGUUGUGUUACAUGAGGAUCACCCAUGUAGGACCGGGCGUGGAUGAG [Whale]", "apparent KD of MS2 coat protein": 213}
{"sequence": "UAUAUAGAUGGAAGUCAUAUAGAUGCAGAAGGAGCGUAGGAAACUACAGGUAGGUCGCUGAGGUACAUGAGGAUCACCCAUGUAG [SSArg A #18 Slice of Pi]", "apparent KD of MS2 coat protein": 24.2}
{"sequence": "AUUCAUAAUUGGGUAAAUGGAUAGAGUGAUACCAGUCAUAUACAUGACCCUUGGCAGCACAAGGACAUGAGGAUCACCCAUGUCA [Same State Theophylline A GF22]", "apparent KD of MS2 coat protein": 28.9}
{"sequence": "GCGAUGGAGCGAAGGAGCGGCUAAAUGUAUCACAUGAGGAUCACCCAUGUUCCAGGAUGUGGCCAGGUAGGUCGCGCUCCAUCGC [SSAB NP+V+V2 #16]", "apparent KD of MS2 coat protein": 288}
{"sequence": "UGUGUUGUCCGAAGGAGCGGGACCUAAUAGUGGUAACAUGAGGAUCACCCAUGUAUUUCGUCCCAGGUAGGUCGCGGACAGUGUA [ArgiB-ms2@36]", "apparent KD of MS2 coat protein": 21.7}
{"sequence": "GAAGGAGAACUCAUGACUCCUUCCCUGGAAGGAGCGAGCGAAAGCUCAGGUAGGUCGCCAGAAACAUGAGGAUCACCCAUGUAAU [(A)''-(M)'-(A)'-(Arg1)-(Arg2)-(M1)-(M2)_Design4]", "apparent KD of MS2 coat protein": 40.1}
{"sequence": "AUCAUGGCCAUCGAUACCAGCUACAUGAGGAUCACCCAUGUAAACGGCGCGGUGAGAUGUAGCCCUUGGCAGCGAAGGGUCAAGG [Beonrexe]", "apparent KD of MS2 coat protein": 19.6}
{"sequence": "CCUAUGCAGUCGGCCGCCACUGAACAUGAGGAUCACCCAUGUAAUUAUAAAUAUGGUCCUAAAAUCAGGACCGGGACUGUAUAGG [Ex Tryptophan B 7]", "apparent KD of MS2 coat protein": 237}
{"sequence": "AUCUGUAUGUUUUCGUGUUUUAUUACAGAUACCAGACUAUACGUUGUCCCUUGGCAGCUGGAUGACAUGAGGAUCACCCAUGUUG [#27 Exclusion-TheophyllineA]", "apparent KD of MS2 coat protein": 31.8}
{"sequence": "UACCGAUGAAGAAGGAGCGUACGUGGUUCACAUGAGGAUCACCCAUGUGCUUAUUGCUAGGUACAGGUAGGUCGCUUCAUCGGUA [SSAB NP+V+V2 #21]", "apparent KD of MS2 coat protein": 15.8}
{"sequence": "CUCUCAUGAACAUGAGGAUCACCCAUGUAACGAGGACCGGUACGGCCGCCACUCGGUCGUGGAAACUAAUCGAGUGAGGUGGGAG [Tryp A Ex t5c]", "apparent KD of MS2 coat protein": 254}
{"sequence": "GCUACAUGAGGAUCACCCAUGUGUACUGAAGGAGCGGCGGAAACGCCAGGUAGGUCGCAGUAUGUGGCUCUGGGCACGAGAAAGC [SSAA NP+V+V2 #2]", "apparent KD of MS2 coat protein": 34.3}
{"sequence": "CGCCGAGAGGGAAGGAGCGCGAUAACAUAACAUGAGGAUCACCCAUGUAAGAAAUUAAUCAUGCAGGUAGGUCGCCCAAGCGGCG [Same State Arginine B GF 3]", "apparent KD of MS2 coat protein": 14.9}
{"sequence": "UCACGACGCAUGGAUACCAGCGACAUGAGGAUCACCCAUGUAUGAGGAUCAGCCAUGUUAUGCCCUUGGCAGCCACGAAGGUCAU [KNKMULLIN]", "apparent KD of MS2 coat protein": 15.8}
{"sequence": "UUCAAAGGGAACGGUGCUGGUAACAGAGAUACCAGAGUAAUAAUACUCCCUUGGCAGCUCAUAACAUGAGGAUCACCCAUGUAAU [Exclusion Theophylline A GF21]", "apparent KD of MS2 coat protein": 13.5}
{"sequence": "GGUCACCUAUCCUCAUUGGUGACCCUGGAAGGAGCGAGCGAGAGCUCAGGUAGGUCGCCAGAACAUGAGGAUCACCCAUGUAAUA [(A)''-(M)'-(A)'(Arg1)-(Arg2)-(M1)-(M2)_Design12]", "apparent KD of MS2 coat protein": 70.1}
{"sequence": "GAGGGUGAGCCUCUGGUCCGUUUGACGGAUACCAGCGAGAGGUCUCGCCCUUGGCAGCCGACGACAUGAGGAUCACCCAUGUUAA [#09 Exclusion-TheophyllineA]", "apparent KD of MS2 coat protein": 15.7}
{"sequence": "UCGUCCUCCGCAAGGAGGAGGAGUUGCGAUACCAGCACGGUAACGUGCCCUUGGCAGCGCACAUGAGGAUCACCCAUGUGGUGUU [#1 Exclusion - Theophylline A Attempt #13 (HarryS)]", "apparent KD of MS2 coat protein": 188}
{"sequence": "GUUUAAAGGUCGGCCGCCACUGUAGGAUGUGUUCUUUCACAUGAGGAUCACCCAUGUUGUUAUUAUAGGACCGGGAUUGUAGGAC [39MS split4]", "apparent KD of MS2 coat protein": 31.7}
{"sequence": "UUCAGUACAACAGAUACCAGACAGUACUCUAAAUUGCAACAUGAGGAUCACCCAUGUAUAGUCCCUUGGCAGCUGUAAUGGGUGA [Theo B SS s2]", "apparent KD of MS2 coat protein": 70.8}
{"sequence": "AACAUGAGGAUCACCCAUGUCUGAACUGAAGGAGCGCUAAAUAAGGCAGGUAGGUCGCGGAAUUUUGUAUAUAUAUAUAUAUGGG [9.F]", "apparent KD of MS2 coat protein": 20.3}
{"sequence": "UUUGCACAUGAGGAUCACCCAUGUACAGAUACCAGCCUCAUCUACGGCCCUUGGCAGCUGAGACAAUGGUGACGUGAUGGGCUUU [Iserraxeso]", "apparent KD of MS2 coat protein": 11.8}
{"sequence": "UUUGCACAUGAGGAUCACCCAUGUACAGAUACCAGCCUCAUCUACGGCCCUUGGCAGCUGAGACAAUGGUGACGUGACGGGCUUU [Erqugere]", "apparent KD of MS2 coat protein": 13.2}
{"sequence": "CAGAGCUACCGGGAUACCAGAAUUGGUAUUCCUAUAUUUCUUACAUGAGGAUCACCCAUGUUCCCUUGGCAGCUUGGUAGCUCUG [ETHB #9]", "apparent KD of MS2 coat protein": 68.8}
{"sequence": "UUUUUCAUAGGUUAUAGUUAAGAAACUGAAGGAGCGUGGUAAUACACAGGUAGGUCGCAGAUUUUACAUGAGGAUCACCCAUGUU [JR_SSArginiA_Sub009]", "apparent KD of MS2 coat protein": 36.4}
{"sequence": "CUGUACAUCUCGGCCGCCACUGACAUGAGGAUCACCCAUGUAGUACCUGAGAUAGACAUAUCUUACAGGACCGGGAGGUGUGCAG [SSTryp B #31]", "apparent KD of MS2 coat protein": 10.6}
{"sequence": "UCUUUCUUUGUAGAUACCAGCAUGUUAAGUUUCUUUUGACAUGAGGAUCACCCAUGUACAUGCCCUUGGCAGCUACAUUUUCUUU [SSThB NP+V+V2 Same Structure]", "apparent KD of MS2 coat protein": 15.4}
{"sequence": "GACAUGAGGAUCACCCAUGUACCGCGAGAAGGAGCGCGGAUAAACGCAGGUAGGUCGCUCGUGGGCUUACAUUCAAGUGUAAGCU [Usarat]", "apparent KD of MS2 coat protein": 31.3}
